Paper PMC9352680, “A comprehensive thermodynamic model for RNA binding by the Saccharomyces cerevisiae Pumilio protein PUF4”

T1: PUF4 RNA-binding domain (Saccharomyces cerevisiae, UniProt P25339 537-888)
T1 sequence: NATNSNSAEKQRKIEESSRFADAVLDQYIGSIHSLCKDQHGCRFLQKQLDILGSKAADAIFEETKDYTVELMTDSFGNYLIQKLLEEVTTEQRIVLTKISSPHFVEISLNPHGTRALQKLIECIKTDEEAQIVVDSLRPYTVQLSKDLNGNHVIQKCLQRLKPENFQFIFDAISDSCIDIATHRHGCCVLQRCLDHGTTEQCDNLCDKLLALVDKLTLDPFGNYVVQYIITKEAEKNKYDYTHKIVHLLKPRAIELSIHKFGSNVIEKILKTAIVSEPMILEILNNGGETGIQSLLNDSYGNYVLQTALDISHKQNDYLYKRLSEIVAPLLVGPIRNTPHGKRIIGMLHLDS

B1: Ib_S1_P5E.1_K5.1_C5.1_H5.1_[T3C]_A5.1_F5.1_[T8C]_T5.1 (ssRNA)
RNA: UCUCUUUGCAUUACUAUCUCUU
B2: Ib_S1_P5E.1_K5.1_C5.1_H5.1_[A4T]_A5.1_F5.1_[T8G]_T5.1 (ssRNA)
RNA: UCUCUUUGUUUUAGUAUCUCUU
B3: Id_ii_S2_P3E.2_K3.1_C3.2_[C-2A]_[T-1C]_H3.1_A3.1_F3.1_T3.2_[T9G]_[A10C] (ssRNA)
RNA: UUUGAUUAAUAUGAUAUCGUUCUUUCUACUGUAUAUAGCUUCUUUCUCGAUAUCAUAUUAAUCUUU
B4: Id_ii_S2_P3E.2_K3.1_C3.2_[C-2A]_H3.1_A3.1_F3.1_T3.2_[T9C]_[A10G] (ssRNA)
RNA: UUUGAUUAAUAUGAUAUCGUUCUUUCUAUUGUAUAUACGUUCUUUCUCGAUAUCAUAUUAAUCUUU
B5: Id_ii_S2_P3E.2_K3.1_C3.2_[C-2A]_[T-1A]_H3.1_A3.1_F3.1_T3.2_[T9G]_[A10C] (ssRNA)
RNA: UUUGAUUAAUAUGAUAUCGUUCUUUCUAAUGUAUAUAGCUUCUUUCUCGAUAUCAUAUUAAUCUUU
B6: Id_ii_S2_P3E.2_K3.1_C3.2_[T-1A]_H3.1_A3.1_F3.1_T3.2_[A10C] (ssRNA)
RNA: UUUGAUUAAUAUGAUAUCGUUCUUUCUCAUGUAUAUAUCUUCUUUCUCGAUAUCAUAUUAAUCUUU
B7: Id_ii_S2_P3E.2_K3.1_C3.2_[T-1C]_H3.1_A3.1_F3.1_T3.2_[T9A]_[A10G] (ssRNA)
RNA: UUUGAUUAAUAUGAUAUCGUUCUUUCUCCUGUAUAUAAGUUCUUUCUCGAUAUCAUAUUAAUCUUU
B8: Id_ii_S2_P3E.2_K3.1_C3.2_[C-2A]_[T-1A]_H3.1_A3.1_F3.1_T3.2_[A10G] (ssRNA)
RNA: UUUGAUUAAUAUGAUAUCGUUCUUUCUAAUGUAUAUAUGUUCUUUCUCGAUAUCAUAUUAAUCUUU
B9: Id_ii_S2_P3E.2_K3.1_C3.2_[C-2A]_[T-1C]_H3.1_A3.1_F3.1_T3.2_[T9A] (ssRNA)
RNA: UUUGAUUAAUAUGAUAUCGUUCUUUCUACUGUAUAUAAAUUCUUUCUCGAUAUCAUAUUAAUCUUU
B10: Id_ii_S2_P3E.2_K3.1_C3.2_[T-1C]_H3.1_A3.1_F3.1_T3.2_[A10T] (ssRNA)
RNA: UUUGAUUAAUAUGAUAUCGUUCUUUCUCCUGUAUAUAUUUUCUUUCUCGAUAUCAUAUUAAUCUUU
B11: Id_ii_S2_P3E.2_K3.1_C3.2_[T-1C]_H3.1_A3.1_F3.1_T3.2_[T9A]_[A10T] (ssRNA)
RNA: UUUGAUUAAUAUGAUAUCGUUCUUUCUCCUGUAUAUAAUUUCUUUCUCGAUAUCAUAUUAAUCUUU
B12: Id_ii_S2_P3E.2_K3.1_C3.2_[T-1C]_H3.1_A3.1_F3.1_T3.2_[T9A]_[A10C] (ssRNA)
RNA: UUUGAUUAAUAUGAUAUCGUUCUUUCUCCUGUAUAUAACUUCUUUCUCGAUAUCAUAUUAAUCUUU
B13: Id_ii_S2_P3E.2_K3.1_C3.2_[T-1G]_H3.1_A3.1_F3.1_T3.2_[A10T] (ssRNA)
RNA: UUUGAUUAAUAUGAUAUCGUUCUUUCUCGUGUAUAUAUUUUCUUUCUCGAUAUCAUAUUAAUCUUU
B14: Id_ii_S2_P3E.2_K3.1_C3.2_[T-1C]_H3.1_A3.1_F3.1_T3.2_[T9C]_[A10G] (ssRNA)
RNA: UUUGAUUAAUAUGAUAUCGUUCUUUCUCCUGUAUAUACGUUCUUUCUCGAUAUCAUAUUAAUCUUU
B15: Id_ii_S2_P3E.2_K3.1_C3.2_[T-1C]_H3.1_A3.1_F3.1_T3.2_[T9G]_[A10T] (ssRNA)
RNA: UUUGAUUAAUAUGAUAUCGUUCUUUCUCCUGUAUAUAGUUUCUUUCUCGAUAUCAUAUUAAUCUUU
B16: Id_ii_S2_P3E.2_K3.1_C3.2_[T-1G]_H3.1_A3.1_F3.1_T3.2_[T9A]_[A10G] (ssRNA)
RNA: UUUGAUUAAUAUGAUAUCGUUCUUUCUCGUGUAUAUAAGUUCUUUCUCGAUAUCAUAUUAAUCUUU
B17: Id_ii_S2_P3E.2_K3.1_C3.2_[C-2A]_H3.1_A3.1_F3.1_T3.2_[T9C]_[A10C] (ssRNA)
RNA: UUUGAUUAAUAUGAUAUCGUUCUUUCUAUUGUAUAUACCUUCUUUCUCGAUAUCAUAUUAAUCUUU
B18: Id_ii_S2_P3E.2_K3.1_C3.2_[C-2A]_[T-1A]_H3.1_A3.1_F3.1_T3.2_[T9A]_[A10T] (ssRNA)
RNA: UUUGAUUAAUAUGAUAUCGUUCUUUCUAAUGUAUAUAAUUUCUUUCUCGAUAUCAUAUUAAUCUUU
B19: Id_ii_S2_P3E.2_K3.1_C3.2_[T-1A]_H3.1_A3.1_F3.1_T3.2_[T9A]_[A10T] (ssRNA)
RNA: UUUGAUUAAUAUGAUAUCGUUCUUUCUCAUGUAUAUAAUUUCUUUCUCGAUAUCAUAUUAAUCUUU
B20: Id_ii_S2_P3E.2_K3.1_C3.2_[C-2A]_[T-1A]_H3.1_A3.1_F3.1_T3.2_[A10T] (ssRNA)
RNA: UUUGAUUAAUAUGAUAUCGUUCUUUCUAAUGUAUAUAUUUUCUUUCUCGAUAUCAUAUUAAUCUUU
B21: Id_ii_S2_P3E.2_K3.1_C3.2_[T-1A]_H3.1_A3.1_F3.1_T3.2_[T9G]_[A10T] (ssRNA)
RNA: UUUGAUUAAUAUGAUAUCGUUCUUUCUCAUGUAUAUAGUUUCUUUCUCGAUAUCAUAUUAAUCUUU
B22: Id_ii_S2_P3E.2_K3.1_C3.2_[T-1A]_H3.1_A3.1_F3.1_T3.2_[A10T] (ssRNA)
RNA: UUUGAUUAAUAUGAUAUCGUUCUUUCUCAUGUAUAUAUUUUCUUUCUCGAUAUCAUAUUAAUCUUU
B23: Id_ii_S2_P3E.2_K3.1_C3.2_[T-1G]_H3.1_A3.1_F3.1_T3.2_[T9G]_[A10G] (ssRNA)
RNA: UUUGAUUAAUAUGAUAUCGUUCUUUCUCGUGUAUAUAGGUUCUUUCUCGAUAUCAUAUUAAUCUUU
B24: Id_ii_S2_P3E.2_K3.1_C3.2_[C-2A]_H3.1_A3.1_F3.1_T3.2_[T9C]_[A10T] (ssRNA)
RNA: UUUGAUUAAUAUGAUAUCGUUCUUUCUAUUGUAUAUACUUUCUUUCUCGAUAUCAUAUUAAUCUUU
B25: Id_ii_S2_P3E.2_K3.1_C3.2_[T-1A]_H3.1_A3.1_F3.1_T3.2_[T9C]_[A10T] (ssRNA)
RNA: UUUGAUUAAUAUGAUAUCGUUCUUUCUCAUGUAUAUACUUUCUUUCUCGAUAUCAUAUUAAUCUUU
B26: Id_ii_S2_P3E.2_K3.1_C3.2_[C-2A]_[T-1C]_H3.1_A3.1_F3.1_T3.2_[A10C] (ssRNA)
RNA: UUUGAUUAAUAUGAUAUCGUUCUUUCUACUGUAUAUAUCUUCUUUCUCGAUAUCAUAUUAAUCUUU
B27: Id_ii_S2_P3E.2_K3.1_C3.2_[T-1A]_H3.1_A3.1_F3.1_T3.2_[T9A]_[A10G] (ssRNA)
RNA: UUUGAUUAAUAUGAUAUCGUUCUUUCUCAUGUAUAUAAGUUCUUUCUCGAUAUCAUAUUAAUCUUU
B28: Id_ii_S2_P3E.2_K3.1_C3.2_[T-1A]_H3.1_A3.1_F3.1_T3.2_[T9A] (ssRNA)
RNA: UUUGAUUAAUAUGAUAUCGUUCUUUCUCAUGUAUAUAAAUUCUUUCUCGAUAUCAUAUUAAUCUUU
B29: Id_ii_S2_P3E.2_K3.1_C3.2_[C-2A]_[T-1C]_H3.1_A3.1_F3.1_T3.2_[T9C]_[A10G] (ssRNA)
RNA: UUUGAUUAAUAUGAUAUCGUUCUUUCUACUGUAUAUACGUUCUUUCUCGAUAUCAUAUUAAUCUUU
B30: Id_ii_S2_P3E.2_K3.1_C3.2_[C-2A]_H3.1_A3.1_F3.1_T3.2 (ssRNA)
RNA: UUUGAUUAAUAUGAUAUCGUUCUUUCUAUUGUAUAUAUAUUCUUUCUCGAUAUCAUAUUAAUCUUU
B31: Id_ii_S2_P3E.2_K3.1_C3.2_[C-2A]_H3.1_A3.1_F3.1_T3.2_[A10T] (ssRNA)
RNA: UUUGAUUAAUAUGAUAUCGUUCUUUCUAUUGUAUAUAUUUUCUUUCUCGAUAUCAUAUUAAUCUUU
B32: Id_ii_S2_P3E.2_K3.1_C3.2_[T-1C]_H3.1_A3.1_F3.1_T3.2_[A10C] (ssRNA)
RNA: UUUGAUUAAUAUGAUAUCGUUCUUUCUCCUGUAUAUAUCUUCUUUCUCGAUAUCAUAUUAAUCUUU
B33: Id_ii_S2_P3E.2_K3.1_C3.2_[T-1G]_H3.1_A3.1_F3.1_T3.2_[T9A]_[A10T] (ssRNA)
RNA: UUUGAUUAAUAUGAUAUCGUUCUUUCUCGUGUAUAUAAUUUCUUUCUCGAUAUCAUAUUAAUCUUU
B34: Id_ii_S2_P3E.2_K3.1_C3.2_[T-1A]_H3.1_A3.1_F3.1_T3.2 (ssRNA)
RNA: UUUGAUUAAUAUGAUAUCGUUCUUUCUCAUGUAUAUAUAUUCUUUCUCGAUAUCAUAUUAAUCUUU
B35: Ib_S1_P5E.1_K5.1_C5.1_H5.1_[G2A]_A5.1_F5.1_[T8A]_T5.1 (ssRNA)
RNA: UCUCUUUAUAUUAAUAUCUCUU

Molecular target: T1, PUF4 RNA-binding domain
Assay: Mg; RNA-MaP; 20 mM Na-HEPES pH 7.4, 30 mM KOAc, 0.75 mM MgCl2, 0.1% Tween-20, 5% glycerol, 0.1 mg/mL BSA, 2 mM DTT; 25 C; 0.0125-409.6 nM protein
Details: tags: N-His6-TEV cleaved; C-SNAP kept, Cy3B-labelled; label: tethered on chip by stalled RNA polymerase

**Q.** How did the Kd turn out when B1 was run?
**A.** Its Kd is 1370 nM.

**Q.** Which Kd does the source give for B2 here?
**A.** The Kd was 70.8 nM.

**Q.** How did the Kd turn out when B3 was run?
**A.** The Kd was 7.15 nM.

**Q.** With B4 as the binder, how does the Kd read?
**A.** The Kd was 19 nM.

**Q.** With B5 as the binder, how does the Kd read?
**A.** Its Kd is 10 nM.

**Q.** How did the Kd turn out when B6 was run?
**A.** The Kd was 2.36 nM.

**Q.** With B7 as the binder, how does the Kd read?
**A.** Its Kd is 4.04 nM.

**Q.** Which Kd does the source give for B8 here?
**A.** The Kd was 7.2 nM.

**Q.** Which Kd does the source give for B9 here?
**A.** The Kd was 3.66 nM.

**Q.** Which Kd does the source give for B10 here?
**A.** The Kd was 1.22 nM.

**Q.** For B11, which Kd is on record?
**A.** Its Kd is 1.48 nM.

**Q.** With B12 as the binder, how does the Kd read?
**A.** The Kd was 2.58 nM.

**Q.** For B13, which Kd is on record?
**A.** The Kd was 1.39 nM.

**Q.** With B14 as the binder, how does the Kd read?
**A.** Its Kd is 4.24 nM.

**Q.** B15 was tested. Which Kd did it give?
**A.** Its Kd is 2.32 nM.

**Q.** Which Kd does the source give for B16 here?
**A.** Its Kd is 7.62 nM.

**Q.** Which Kd does the source give for B17 here?
**A.** The Kd was 6.81 nM.

**Q.** For B18, which Kd is on record?
**A.** Its Kd is 10.1 nM.

**Q.** How did the Kd turn out when B19 was run?
**A.** Its Kd is 2.96 nM.

**Q.** With B20 as the binder, how does the Kd read?
**A.** The Kd was 6.37 nM.

**Q.** With B21 as the binder, how does the Kd read?
**A.** The Kd was 3.93 nM.

**Q.** How did the Kd turn out when B22 was run?
**A.** Its Kd is 1.78 nM.

**Q.** Which Kd does the source give for B23 here?
**A.** Its Kd is 10.2 nM.

**Q.** B24 was tested. Which Kd did it give?
**A.** Its Kd is 8.7 nM.

**Q.** Which Kd does the source give for B25 here?
**A.** Its Kd is 5.2 nM.

**Q.** How did the Kd turn out when B26 was run?
**A.** The Kd was 1.69 nM.

**Q.** How did the Kd turn out when B27 was run?
**A.** Its Kd is 15.2 nM.

**Q.** With B28 as the binder, how does the Kd read?
**A.** The Kd was 3.89 nM.

**Q.** Which Kd does the source give for B29 here?
**A.** The Kd was 49.4 nM.

**Q.** For B30, which Kd is on record?
**A.** Its Kd is 5.13 nM.

**Q.** How did the Kd turn out when B31 was run?
**A.** The Kd was 3.05 nM.

**Q.** Which Kd does the source give for B32 here?
**A.** The Kd was 0.998 nM.

**Q.** B33 was tested. Which Kd did it give?
**A.** Its Kd is 1.85 nM.

**Q.** How did the Kd turn out when B34 was run?
**A.** Its Kd is 1.35 nM.

**Q.** Which Kd does the source give for B35 here?
**A.** The Kd was 698 nM.
